Several values for one entry are separate records, joined by “and”; a condition that tells them apart may be missing. Equal entries are not always repeated. Where two headings read alike, the source gives them in different places.
Columns and labels:
Test in all cases: native MS
[1] = target: Alcohol dehydrogenase 1 (S. cerevisiae) (S. cerevisiae) (UniProt P00330)
[2] = target: Alcohol dehydrogenase 1 (S. cerevisiae) (S. cerevisiae) (UniProt P00330); remark: listed apart in the source
[3] = target: Trastuzumab light chain, dissociated from the mAb
[4] = target: Truncated alcohol dehydrogenase 1 (S. cerevisiae) (S. cerevisiae)

Truncated alcohol dehydrogenase 1 (S. cerevisiae) (domain or fragment), sequence (P00330 2-348): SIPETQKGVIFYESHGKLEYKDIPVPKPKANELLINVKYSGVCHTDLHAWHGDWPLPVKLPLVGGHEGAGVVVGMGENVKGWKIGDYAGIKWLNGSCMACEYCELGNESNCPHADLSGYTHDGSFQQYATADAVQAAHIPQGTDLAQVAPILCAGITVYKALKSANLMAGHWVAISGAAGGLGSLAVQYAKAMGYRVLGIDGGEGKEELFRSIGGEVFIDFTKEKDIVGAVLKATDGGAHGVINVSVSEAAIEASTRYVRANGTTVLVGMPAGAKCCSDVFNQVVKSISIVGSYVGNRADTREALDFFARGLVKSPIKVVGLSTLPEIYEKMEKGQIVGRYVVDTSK

Question: “Alcohol dehydrogenase 1 (S. cerevisiae) (from UniProt P00330 2-348) (enzyme)” was tested. Which stoichiometry N [1] did it give?
Answer: 2 and 4

Question: What about the percent detected as homotetramer [2] of the same substance?
Answer: 92%

Question: And the stoichiometry N [2]?
Answer: 4

Question: Which stoichiometry N [3] does the source give for “Trastuzumab light chain, dissociated from the mAb (domain or fragment)” here?
Answer: 2

Question: “Truncated alcohol dehydrogenase 1 (S. cerevisiae) (domain or fragment)” was tested. Which stoichiometry N [4] did it give?
Answer: 4

Reference: paper PMC5709234
